According to patent publication US9657062B2, “Ghrelin analogues” (Zealand Pharma A/S, priority 2012, dated 2017):
The star is where a group is joined. Octanoyl = CCCCCCCC(=O)*; Octyl = CCCCCCCC*

B1: H-SS-S(O-octanoyl)-FLSPEHQRVQQRKESKKPPAKLQPR-OH (peptide)
peptide: H-SSS(Octanoyl)FLSPEHQRVQQRKESKKPPAKLQPR-OH
SMILES: CCCCCCCC(=O)OC[C@H](NC(=O)[C@H](CO)NC(=O)[C@@H](N)CO)C(=O)N[C@@H](Cc1ccccc1)C(=O)N[C@@H](CC(C)C)C(=O)N[C@@H](CO)C(=O)N1CCC[C@H]1C(=O)N[C@@H](CCC(=O)O)C(=O)N[C@@H](Cc1c[nH]cn1)C(=O)N[C@@H](CCC(N)=O)C(=O)N[C@@H](CCCNC(=N)N)C(=O)N[C@H](C(=O)N[C@@H](CCC(N)=O)C(=O)N[C@@H](CCC(N)=O)C(=O)N[C@@H](CCCNC(=N)N)C(=O)N[C@@H](CCCCN)C(=O)N[C@@H](CCC(=O)O)C(=O)N[C@@H](CO)C(=O)N[C@@H](CCCCN)C(=O)N[C@@H](CCCCN)C(=O)N1CCC[C@H]1C(=O)N1CCC[C@H]1C(=O)N[C@@H](C)C(=O)N[C@@H](CCCCN)C(=O)N[C@@H](CC(C)C)C(=O)N[C@@H](CCC(N)=O)C(=O)N1CCC[C@H]1C(=O)N[C@@H](CCCNC(=N)N)C(=O)O)C(C)C
B2: H-PS-S(O-octyl)-FLSPEHSRVSSR-NH2 (peptide)
peptide: H-PSS(Octyl)FLSPEHSRVSSR-NH2
SMILES: CCCCCCCCOC[C@H](NC(=O)[C@H](CO)NC(=O)[C@@H]1CCCN1)C(=O)N[C@@H](Cc1ccccc1)C(=O)N[C@@H](CC(C)C)C(=O)N[C@@H](CO)C(=O)N1CCC[C@H]1C(=O)N[C@@H](CCC(=O)O)C(=O)N[C@@H](Cc1c[nH]cn1)C(=O)N[C@@H](CO)C(=O)N[C@@H](CCCNC(=N)N)C(=O)N[C@H](C(=O)N[C@@H](CO)C(=O)N[C@@H](CO)C(=O)N[C@@H](CCCNC(=N)N)C(N)=O)C(C)C
B3: H-FS-S(O-octanoyl)-FLSPEHQRVQQRKESKKPPAKLQPR-OH (peptide)
peptide: H-FSS(Octanoyl)FLSPEHQRVQQRKESKKPPAKLQPR-OH
SMILES: CCCCCCCC(=O)OC[C@H](NC(=O)[C@H](CO)NC(=O)[C@@H](N)Cc1ccccc1)C(=O)N[C@@H](Cc1ccccc1)C(=O)N[C@@H](CC(C)C)C(=O)N[C@@H](CO)C(=O)N1CCC[C@H]1C(=O)N[C@@H](CCC(=O)O)C(=O)N[C@@H](Cc1c[nH]cn1)C(=O)N[C@@H](CCC(N)=O)C(=O)N[C@@H](CCCNC(=N)N)C(=O)N[C@H](C(=O)N[C@@H](CCC(N)=O)C(=O)N[C@@H](CCC(N)=O)C(=O)N[C@@H](CCCNC(=N)N)C(=O)N[C@@H](CCCCN)C(=O)N[C@@H](CCC(=O)O)C(=O)N[C@@H](CO)C(=O)N[C@@H](CCCCN)C(=O)N[C@@H](CCCCN)C(=O)N1CCC[C@H]1C(=O)N1CCC[C@H]1C(=O)N[C@@H](C)C(=O)N[C@@H](CCCCN)C(=O)N[C@@H](CC(C)C)C(=O)N[C@@H](CCC(N)=O)C(=O)N1CCC[C@H]1C(=O)N[C@@H](CCCNC(=N)N)C(=O)O)C(C)C
B4: H-PS-S(O-octyl)-FLSPEHSRVSSRKESKKPPAKLSPR-NH2 (peptide)
peptide: H-PSS(Octyl)FLSPEHSRVSSRKESKKPPAKLSPR-NH2
SMILES: CCCCCCCCOC[C@H](NC(=O)[C@H](CO)NC(=O)[C@@H]1CCCN1)C(=O)N[C@@H](Cc1ccccc1)C(=O)N[C@@H](CC(C)C)C(=O)N[C@@H](CO)C(=O)N1CCC[C@H]1C(=O)N[C@@H](CCC(=O)O)C(=O)N[C@@H](Cc1c[nH]cn1)C(=O)N[C@@H](CO)C(=O)N[C@@H](CCCNC(=N)N)C(=O)N[C@H](C(=O)N[C@@H](CO)C(=O)N[C@@H](CO)C(=O)N[C@@H](CCCNC(=N)N)C(=O)N[C@@H](CCCCN)C(=O)N[C@@H](CCC(=O)O)C(=O)N[C@@H](CO)C(=O)N[C@@H](CCCCN)C(=O)N[C@@H](CCCCN)C(=O)N1CCC[C@H]1C(=O)N1CCC[C@H]1C(=O)N[C@@H](C)C(=O)N[C@@H](CCCCN)C(=O)N[C@@H](CC(C)C)C(=O)N[C@@H](CO)C(=O)N1CCC[C@H]1C(=O)N[C@@H](CCCNC(=N)N)C(N)=O)C(C)C

The binders below were run against human growth hormone secretagogue receptor type 1a (human, UniProt Q92847 1-366) (assay: cell-based or functional assay).
Sequence of human growth hormone secretagogue receptor type 1a (Q92847 whole entry): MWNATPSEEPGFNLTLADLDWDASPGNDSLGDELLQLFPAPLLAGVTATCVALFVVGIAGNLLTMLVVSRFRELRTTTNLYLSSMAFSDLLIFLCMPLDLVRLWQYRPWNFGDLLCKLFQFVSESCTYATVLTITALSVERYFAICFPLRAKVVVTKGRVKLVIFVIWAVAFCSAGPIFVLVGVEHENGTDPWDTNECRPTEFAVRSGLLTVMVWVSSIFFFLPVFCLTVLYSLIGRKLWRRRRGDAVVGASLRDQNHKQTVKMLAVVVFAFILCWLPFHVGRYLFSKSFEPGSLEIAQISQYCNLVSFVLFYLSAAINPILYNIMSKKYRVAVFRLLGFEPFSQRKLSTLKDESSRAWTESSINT

Question: B1 was tested. Which “EC50 (nM); Ca2+ induction in HEK293 cells stably expressing the human ghrelin receptor” value (“EC50 (nM); Ca2+ induction” for short) did it give?
Answer: 0.385 nM

Question: With B2 as the binder, how does the “EC50 (nM); Ca2+ induction” value read?
Answer: 0.467 nM

Question: With B3 as the binder, how does the “EC50 (nM); Ca2+ induction” value read?
Answer: 0.714 nM

Question: Which “EC50 (nM); Ca2+ induction” value does the source give for B4 here?
Answer: 0.48 nM
